Assay results published in publication PMC9253517 (The Journal of Experimental Medicine, 2022).
Residue numbers refer to the chain shown, from its start.

B1: JN012 (antibody, V domains shown)
VH: QLQLQESGPGLVKPSETLSLTCTVSGGSISSGSYYWVWIRQPPGKGLEWIGSVYYSGTTYYNPSLKSRVTISIDTSKNQFSLRLSSVTAADTAVYYCATNNYSFLTGYYVLDYWGQGTLVTVSS
VL: SYELTQPPSVSVSLGQMARITCSGEALPKTYAYWYQQKPGQFPVLVIYKDSERPSGIPERFSGSRSGTIVTLTISGVQAEDEADYYCLSTDISGTWVFGGGTKLTVL
B2: JN028 (antibody, V domains shown)
VH: EVQLVESGGGLVQPGGSLRLSCAASGFTFSSYSMNWVRQAPGKGLEWVSYISSSSSTIYYADSVKGRFTISRDNAKNSLYLQMNSLRDEDTAVYYCAPLRVLGGMDVWGQGTTVTVSS
VL: SYELTQPPSVSVSPGQTARIICSGDALPKQYAYWYQQKPGQAPVLVIYKDSERPSGIPERFSGSSSGTTVTLTISGVQAEDEADYYCQSADSSGWVFGGGTKLTVL
B3: JN005 (antibody, V domains shown)
VH: QVQLVESGGGLVEPGGSLRLSCAASGFTFSDYFMSWIRQAPGRGLEWVSFITTSGSTIYYADSVKGRFTISRDNAKNSLYLQMNSLRAEDTAVYYCARRSGGYYDILTGPYGLDVWGQGTTVTVSS
VL: not shown
B4: JN139 (antibody, V domains shown)
VH: QVQLQESGPGLVKPSETLSLTCTVSGGSISNYFWSWIRQPPGQGLEWIGYIFYNGDTTYNPSLKSRVTISVDTSKNQFSLKLSSVTAADTAVYYCARDYYDSRGVFHGGFDSWGQGILVTVSS
VL: DIVMTQSPDSLAVSLGERATINCKSSQSVLYSSNSRNYLAWYQQRPGQPPKRLIYWASTRESGVPDRFSGSGSGTDFTLTISSLQAEDVAVYYCQQYYTNPPWTFGQGTKVEIK
B5: JN026 (antibody, V domains shown)
VH: QVQLQESGPGLVKPSETLSLTCTVSGGSISSYYWSWIRQPPGKGLEWIGYIYYSGSTNYNPSLKSRVTISVDTSKNQFSLKLSSVTAADTAVYYCARHSLTYYYDRSDYKGAFDIWGQGTMVTVSS
VL: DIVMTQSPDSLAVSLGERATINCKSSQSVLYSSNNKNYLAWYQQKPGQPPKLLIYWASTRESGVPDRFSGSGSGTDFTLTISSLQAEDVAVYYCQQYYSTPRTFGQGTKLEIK
B6: JN022 (antibody, V domains shown)
VH: B5 VH with G27D, S30R, S31N, I48M, R106S
VL: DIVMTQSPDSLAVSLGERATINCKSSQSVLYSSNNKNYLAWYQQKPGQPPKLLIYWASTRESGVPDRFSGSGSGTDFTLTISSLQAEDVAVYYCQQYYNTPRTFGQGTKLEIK
B7: JN229 (antibody, V domains shown)
VH: QVQLVQSGAEVKKPGSSVKVSCKASGGRFSSTAISWVRQAPGQGLEWMGGIIPIFGAPTDVQKFQGRVTITADQSTSTAYMELSNLRSEDTAVYYCATLGNYDFLTGNTFSYFDYWGQGTLVTVSS
VL: NFMLTQPHSVSESLGKTVTISCTRTSGSIASDYVQWYQQRPGSSPTTVIYENFQRPSGVPDRFSASVDSSSNSASLTISGLRAEDEADYYCQSHDRSDFLPVFGGGTQLTVL
B8: JN038 (antibody, V domains shown)
VH: B7 VH
VL: DIQLTQSPSSLSASVGDRVTITCRAGQSIGNYLNWYQQKPGKAPKVLIYGASSLQSGVPSRFSGSGSGTDFTLTISSLQPEDFASYYCQQSFTTPLTFGGGTKVEIK
B9: JN225 (antibody, V domains shown)
VH: EVQLVESGGGLVQPGGSLRLSCGASGFTLGSFWMHWVRQAPGKGLEWVGDINGDGSAKYYADSVRGRFTISRDNAENSLFLQMNSLRVEDTALYYCARGAAWLDYWGQGTLVTVSS
VL: QSALTQPASVSGSPGQSITISCTGTSSDVGGYNYVSWYQQHPGKAPKLIIYDVTNRPSGVSNRFSGSKSGNTASLTISGLQAEDEADYFCDSYRSSSPPSYVFGTGTKVTVL
B10: JN034 (antibody, V domains shown)
VH: QVQLQESGPGLVEPSQTLSLTCAVSGGSISGGDYYWSWIRQPPGKGLEWIGYIYYSGSTFYNPSLYSRLTISVDTSKNQFSLKLSSVTAADTAVYYCAREGPAIFKIPNGFDIWGQGTMVTVSS
VL: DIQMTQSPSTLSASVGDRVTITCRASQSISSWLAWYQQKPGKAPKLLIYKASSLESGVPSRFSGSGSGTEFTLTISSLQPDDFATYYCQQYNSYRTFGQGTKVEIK
B11: JN226 (antibody, V domains shown)
VH: QVQLVQSGAEVKKPGSSVKVSCKASGGTFSSYAISWVRQAPGQGLEWMGGIIPIFGTANYAQKFQGRVTITADKSTSTAYMELSSLRSEDTAVYYCAMLGAGSPLRGIFGVVMTDGDGMDVWGQGTTVTVSS
VL: QSVLTQPPSVSAAPGQKVTISCSGSSSNIGNNYVSWYQQLPGTAPKLLIYDNNKRPSGIPDRFSGSKSGTSATLGITGLQTGDEADYYCGTWDSSLSAGRVFGGGTKLTVL
B12: JN236 (antibody, V domains shown)
VH: QVQLQESGPRLVKPSETLSLTCTVSGGSINDYYWSWIRQPPGKGLEYLGYIYYTGTTNYNPSLQSRLTMSVDTSKNQFSLKVNYVSAADTAVYYCARHSTGGSYPLDSWGRGILVTVSS
VL: DIVMTQSPLTLPVTPGEPASISCRSSQSLLHSNGHNYVDWYLQKPGQSPQLLIHLGSNRASGVPDRFSGSGSGTDFTLKISRVEAEDVGVYFCMQALQSRTFGQGTKVEIK
B13: JN136 (antibody, V domains shown)
VH: QVQLVESGGGVVQPGRSLRLSCAASGFTFSSYAMHWVRQAPGKGLEWVAVISYDGSNKYYADSVKGRFTISRDNSKNTLYLQMNSLRAEDTAVYYCARELAWRGITIFGVVIYNPFDYWGQGTLVTVSS
VL: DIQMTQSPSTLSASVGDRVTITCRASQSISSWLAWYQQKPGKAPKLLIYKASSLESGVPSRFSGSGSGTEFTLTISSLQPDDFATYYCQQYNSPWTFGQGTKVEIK
B14: JN223 (antibody, V domains shown)
VH: EVQLLESGGGLVQPGGSLRLSCAASRFTFSNFAMSWVRQAPGKGLEWVSAISGSGGSTYYADSVKGRFIISRDNSKNTLFLQMNSLRAEDTAVYFCAKDLPYDNTGARFDYWGQGTLVTVSS
VL: SYELTQPPSVSVSPGQTARITCSGDALPKKYAYWYQQKSGQAPVLVIYEDSKRPSGIPERFSGSSSGTMATLTISGAQVEDEADYYCYSTDSTGNHRGVFGGGTKLTVL
B15: JN140 (antibody, V domains shown)
VH: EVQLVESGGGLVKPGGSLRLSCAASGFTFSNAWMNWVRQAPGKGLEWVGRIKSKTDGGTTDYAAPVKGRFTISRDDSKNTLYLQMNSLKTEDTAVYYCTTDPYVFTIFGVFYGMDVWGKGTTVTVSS
VL: QSALTQPASVSGSPGQSITISCTGTSSDVGSYNLVSWYQQHPGKAPKLMIYEVSKRPSGVSNRFSGSKSGNTASLTISGLQAEDEADYYCCSYAGSSTHHWVFGGGTKLTVL
B16: JN222 (antibody, V domains shown)
VH: EVQLVESGGGLVQPGGSLRLSCAASGFTFSRYWMSWVRQAPGKGLEWVANIKGDGKYYVDSLKGRFTISGDNAENSLYLQMNSLRAEDTAMYYCARYLAETGALDIWGQGTMVTVSS
VL: QSALTQPRAVSGSPGQSVTISCTGTSSDVGGYNYVSWYQQHPGKAPKLMIYDVSKRPSGVPDRFSGSKSGNTASLTISGLQAEDEADYYCYSFSGRYTSYVFGIGTKVTVL
B17: JN138 (antibody, V domains shown)
VH: QVQLVQSGTEVKKPGASVKVSCKASGYTFTSYYMHWVRQAPGQGLEWMGIINPSGGSTSYAQKFQGRVTMTRDTSTSTVYMELSSLRSEDTAVYYCARAELGSGSYPYYGMDVWGKGTTVTVSS
VL: SYELTQPPSVSVSPGQTARITCSGDALPKQYAYWYQQKPGQAPVLVIYKDSERPSGIPERFSGSSSGTTVTFTISGVQAEDEADYYCQSADSSGSYVVFGGGTKLTVL
B18: JN219 (antibody, V domains shown)
VH: QLQLQESGPGLVKPSETLSLTCTVSGGSISSSSYYWGSYYWGWIRQPPGKGLEWIASIYYSGTTYYNPSLKSRVTISVDTSKNQFSLKLSSVTAADTAVYYCASRYCSGGSCSLDYWGQGTLVTVSS
VL: QSALTQPRSLSGSPGQSVTISCTGTSSDVGSYNYVSWYQQHPGKAPKLMIYDVSKRPSGVPDRFSGSKSGNTASLTISGLQAEDEADYYCCSYAGSYTLWVFGGGTKLTVL
B19: JN015 (antibody, V domains shown)
VH: QLQLQESGPGLVKPSETLSLTCTVSGGSISGSSYYWGWIRQPPGKGLEWFGSIYYSGTTYYNPSLKSRVAISVDTSKKQFSLKLSSVTAADTAVYYCAARYFDWSVEYWGQGTLVTVSS
VL: B18 VL with L10V, S31G, H41Q, Y89H, L99Y, V101L
B20: JN135 (antibody, V domains shown)
VH: QLQLQESGPGLVKPSETLSLTCTVSGGSISSSSYYWGWIRQPPGKGLEWIGSIYYSGSTYYNPSLKSRVTISVDTSKNQFSLKLSSVTAADTAVYYCARLIAATWTFGGVIFNWFDPWGQGTLVTVSS
VL: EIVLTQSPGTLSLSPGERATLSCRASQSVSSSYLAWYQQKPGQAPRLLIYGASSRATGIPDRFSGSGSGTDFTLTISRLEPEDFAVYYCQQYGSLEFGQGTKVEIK
B21: JN018 (antibody, V domains shown)
VH: QVQLQESGPGLVKPSETLSLTCTVSGGSISGSYWSWMRQPAGKPLEWIGRIYVSGSYNRNPSLSSRVTVSEDTAKNQISLRLTSVTAADTAVYYCAREIMGWYFDLWGRGTLVTVSS
VL: EIVMTQSPGTLSVSPGERATLSCRASQSVRSSLAWYQQKPGQAPRLLIYDASTRATGIPARFSGSGSGTEFTLTISSLQSEDFAIYLCQQYYNWPSYTFTQGTKLEIK
B22: JN232 (antibody, V domains shown)
VH: EVQLVQSGAEVKKPGESLNISCKGSGYSFTNYWIGWVRQMPGKGLEWMGIIYPGDSDTRYSPSFQGQVTISADKSISTVFLQWSSLKASDTAMYYCVRHDVLAVLMGGVTFDIWGQGTMVTVSS
VL: EIVLTQSPGTLSLSPGERATLSCRASQSISSSYLAWYQQKSGQAPRLLIYGASSRATGIPDRFSGSGSGTDFTLTISRLEPEDFAVYYCQQYGGSPMYTFGQGTKLEIK
B23: JN033 (antibody, V domains shown)
VH: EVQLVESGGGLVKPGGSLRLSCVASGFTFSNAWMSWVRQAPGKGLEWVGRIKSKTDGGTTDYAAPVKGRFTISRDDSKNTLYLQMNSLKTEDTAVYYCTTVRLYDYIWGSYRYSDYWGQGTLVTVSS
VL: DIQLTQSPFSLSASVGDRVTITCRASQGISSYLAWYQQKPGKAPKLLIYAASTLQSGVPSRFSGSGSGTEFTLTISSLQPEDFATYYCQQLNSYPPNTFGPGTKVDIK
B24: JN227 (antibody, V domains shown)
VH: QLQLQESGPGLVKPSETLSLTCTVSGGSISSSSYYWGWIRQPPGKGLEWIGSIYYSGSTYYNPSLKSRVTISVDTSKNQFSLKLSSVTAADTAVYYCAREGVITIFGVAQFDYWGQGTLVTVSS
VL: not shown
B25: JN030 (antibody, V domains shown)
VH: EVQLVESGGGLVKPGGSLRLSCAASGFTFSNYNMNWVRQAPGKGLEWVSSISTSGSFIYYADSVKGRFTISRDNAKNSLYLQMNSLRAEDTAVYYCARDTTPYSSGWYLWYFDLWGRGTLVTVSS
VL: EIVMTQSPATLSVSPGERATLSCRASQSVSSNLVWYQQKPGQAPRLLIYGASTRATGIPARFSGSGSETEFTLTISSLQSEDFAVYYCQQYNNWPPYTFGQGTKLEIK

Target: SARS-CoV-2 Wuhan-Hu-1 NTD (SARS-CoV-2, UniProt P0DTC2 14-307)
Test: cell-based or functional assay

Binder	neutralisation IC50, WT (293TAce2)
B1	> 1 µg/mL
B2	> 1 µg/mL
B3	> 1 µg/mL
B4	> 1 µg/mL
B5	> 1 µg/mL
B6	> 1 µg/mL
B7	> 1 µg/mL
B8	> 1 µg/mL
B9	> 1 µg/mL
B10	> 1 µg/mL
B11	> 1 µg/mL
B12	> 1 µg/mL
B13	> 1 µg/mL
B14	> 1 µg/mL
B15	> 1 µg/mL
B16	> 1 µg/mL
B17	0.401 µg/mL
B18	> 1 µg/mL
B19	> 1 µg/mL
B20	0.947 µg/mL
B21	> 1 µg/mL
B22	> 1 µg/mL
B23	> 1 µg/mL
B24	> 1 µg/mL
B25	0.348 µg/mL
